Test [1] addresses human serum albumin (human) (UniProt P02768). As to the kind of experiment: sandwich ELISA, HSA coated at 10 µg/ml, control at 1 µM, detection with anti-FITC antibody. Background: ELISA stands for enzyme-linked immunosorbent assay.
For test [2] the target is unchanged.
The target of test [3] is interleukin-1 type 1 receptor (human) (UniProt P14778). As to the kind of experiment: cell-based or functional assay.

Where two headings read alike, the source gives them in different places.

recombinant human IL-1ra (R&D systems), sequence (P18510 other isoform, or with tags, fused parts or gaps): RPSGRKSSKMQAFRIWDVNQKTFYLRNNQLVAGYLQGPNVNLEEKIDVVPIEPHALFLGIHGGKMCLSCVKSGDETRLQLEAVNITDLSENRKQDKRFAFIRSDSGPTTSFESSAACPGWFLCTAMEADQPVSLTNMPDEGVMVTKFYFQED
interleukin-1 type 1 receptor (human), sequence (P14778 18-569): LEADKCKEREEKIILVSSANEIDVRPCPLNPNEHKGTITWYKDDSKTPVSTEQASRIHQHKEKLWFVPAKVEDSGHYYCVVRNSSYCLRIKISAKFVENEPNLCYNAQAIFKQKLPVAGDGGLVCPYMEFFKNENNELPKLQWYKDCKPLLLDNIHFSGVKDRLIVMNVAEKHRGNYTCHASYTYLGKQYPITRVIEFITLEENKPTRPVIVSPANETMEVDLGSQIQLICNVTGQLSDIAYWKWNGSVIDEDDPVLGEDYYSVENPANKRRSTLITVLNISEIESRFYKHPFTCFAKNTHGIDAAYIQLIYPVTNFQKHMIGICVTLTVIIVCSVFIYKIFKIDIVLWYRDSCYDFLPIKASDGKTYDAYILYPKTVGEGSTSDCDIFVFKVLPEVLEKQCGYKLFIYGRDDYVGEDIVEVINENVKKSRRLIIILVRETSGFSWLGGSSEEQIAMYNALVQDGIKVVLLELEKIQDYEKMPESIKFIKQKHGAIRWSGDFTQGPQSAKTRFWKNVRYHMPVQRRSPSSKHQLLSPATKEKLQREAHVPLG
uncoupled saporin (enzyme), sequence (P20656 25-277): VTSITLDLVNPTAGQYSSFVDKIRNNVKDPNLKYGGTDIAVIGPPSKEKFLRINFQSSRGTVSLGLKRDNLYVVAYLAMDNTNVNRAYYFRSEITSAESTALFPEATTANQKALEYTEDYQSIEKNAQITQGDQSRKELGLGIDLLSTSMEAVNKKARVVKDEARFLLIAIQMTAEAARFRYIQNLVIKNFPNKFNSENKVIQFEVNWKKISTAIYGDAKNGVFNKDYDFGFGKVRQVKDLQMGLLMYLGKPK

In turn, control FITC coupled antibody came in with an OD600 in test [1] of 0.049 OD600.
In test [2], uncoupled saporin (enzyme) came in with an OD600 of 0.079 OD600.
With “recombinant human IL-1ra (R&D systems) (from UniProt P18510 26-176) (ligand)”, the ND50 (neutralizing dose 50), IL-1-induced IL-8 secretion by MRC-5 cells in test [3] was 0.5 nM.

Source of the values: US20090111745A1.
